Where two headings read alike, the source gives them in different places.
Tests used:
[1] = biological target: T1, His-tagged human GTP cyclohydrolase 1 (human, UniProt P30793 1-250); experiment: FRET or BRET
T1 sequence (looked up): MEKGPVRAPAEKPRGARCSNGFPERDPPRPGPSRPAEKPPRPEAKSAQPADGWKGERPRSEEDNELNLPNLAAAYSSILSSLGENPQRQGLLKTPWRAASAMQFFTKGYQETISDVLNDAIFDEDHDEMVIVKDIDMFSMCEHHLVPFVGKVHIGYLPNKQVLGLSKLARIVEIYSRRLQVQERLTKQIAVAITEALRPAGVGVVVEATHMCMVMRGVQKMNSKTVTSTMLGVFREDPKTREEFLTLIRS

[2] = biological target: T1, His-tagged human GTP cyclohydrolase 1; experiment: FRET or BRET; remark: listed apart in the source

Kd [1]: 52.1 nM
Kd [2]: 15.9 nM
B1: glutathione S-transferase (GST)-tagged human GTP cyclohydrolase feedback regulatory protein (natural protein)
chain: not shown
